The nature of this data set: yeast display, Sf9 membrane polyspecificity reagent, FACS + sequencing; frameworks hold sequencing errors. The method in brief:
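Nanobodies came from a synthetic yeast display library in Saccharomyces cerevisiae BJ5465, induced with galactose for 36–48 hours and stained for 1 hour at 4 °C with 10% biotinylated, detergent-solubilized Sf9 membrane reagent. Cells were enriched on streptavidin microbeads and then FACS-sorted, with low and high (top ~1%) gates set on anti-HA fluorescence for expression and streptavidin fluorescence for reagent binding. Each polyreactivity label reflects the gate a clone came from. Genes were amplified by colony PCR, sequenced by MiSeq 2 × 250 and filtered by CDR length.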
Turning to “QVQLVESGGGLVQAGGSLRLSCAASGSTFVYNAMGWYRQAPGKERELVAAITNSGSTYYADSVKGRFTISRDNAKNTVYLQMNSLKPEDTAVYDCAARSRVYWARSGYWGQGTQVTVAS”, the “polyreactivity (PSR sort gate)” value is on record as “low polyreactivity”.

For “QVQLVESGGGLVQAGGSLRLSCAASGSTFVYYAMGSYIQAPGKERELVAAISSGGNTKYADSVKGRFTISRDNAMNTVYLHMNRLKPEDTAVYYCARETQSYFDHDYWGQGTQVTVSS”, the “polyreactivity (PSR sort gate)” value was “low polyreactivity”.

Take “QVQLVESGGGLVQAGGSLRLSCAASGSTFVYYAMGWYRKAPGKERELVAAITSSGGSTHYADSVKGRFTISRDNAKNTVYLQMNSLKPEDTAVYYCAVGALGVYGHYGYWGQGTQVTVSS”: the “polyreactivity (PSR sort gate)” value was “low polyreactivity”.

Regarding “QVQLVESGGGLVQAGGSLRLSCAASGSTFVYYAMGWYRQAPGKEREFVAAINGGGRTNYADSVKGRFTISRDNAKNTVYLQMNSLKPEDTAVYDCAADGLSNVRQMDYWGQGTQVTVSS”, the “polyreactivity (PSR sort gate)” value is “low polyreactivity”.

For “QVQLVESGGGLVQAGGSLRLSCAASGSTFVYYAMGWYRQAPGKEREFVAGISRSGGSTYYADSVKGRFTISRDNAKNTVYLQMNSLIPEDTAVYYCNARGGLPKYGYWGQGTQVTVSS”, the “polyreactivity (PSR sort gate)” value is “high polyreactivity”.

In the case of “QVQLVESGGGLVQAGGSLRLSCAASGSTFVYYAMGWYRQAPGKERELVAAIRYSGASTYYADSVKGRFTISRDNAKNTVYLQMNSLKPEDTAVYYCAASSRTFGYKYYYWGQGTQVTVSS”, the “polyreactivity (PSR sort gate)” value is reported as “high polyreactivity”.

“QVQLVESGGGLVQAGGSLRLSCAASGSTFVYYAMGWYRQAPGKERELVAASTYADSVKGRFTISRDNAKNTVYLQMNSLKPEDTAVYYCAADFVSAYFTIYDYWGQGTQVTVSS”: the “polyreactivity (PSR sort gate)” value was “low polyreactivity”.

As for “QVQLVESGGGLVQAGGSLRLSCAASGSTFVYYAMGWYRQAPGKERELVAVISDDGGTYYADSVKGRFTISRDNAKNTVYLQMNSLKPEDTAVYYCAADPYWFFPHYDSWGQGTQVTVSS”, the “polyreactivity (PSR sort gate)” value is on record as “low polyreactivity”.

For the sequence “QVQLVESGGGLVQAGGSLRLSCAASGSTFVYYAMVWYRQAPGKERELVAAITGSVDSTYYADSVKGRFTISRDNAKNTVYLQMNSVKPEDTAVYYCAADTYSTYWGQGTQVTVSS”, the “polyreactivity (PSR sort gate)” value is given as “low polyreactivity”.

As to “QVQLVESGGGLVQAGGSLRLSCAASGSTFVYYDMGWFRQAPGKERELVASISWSGGSTRYADSVKGRFTISRDNAKNTVYLQMNSLKPEDTAVYYCNKSNPDYDGLAIHAFDYWGQGTQVTVSS”, the “polyreactivity (PSR sort gate)” value is recorded as “low polyreactivity”.

“QVQLVESGGGLVQAGGSLRLSCAASGSTFVYYDMGWYRQAPGKERELVAAITGSVDSTYYADSVKGRFTISRDNAKNTVYLQMNSLKPEDTAVYYCAADTYSTYWGQGTQVTVSS”: the “polyreactivity (PSR sort gate)” value is on record as “low polyreactivity”.

Take “QVQLVESGGGLVQAGGSLRLSCAASGSTFVYYDMGWYRQAPGQERELVATINGSGSRTNYADSVKGRFTISRDYAKNTVYLQMNSLKPEDTAVYYCAADYISYLVAGGYEDDYWGQVTQVTVSS”: the “polyreactivity (PSR sort gate)” value was “low polyreactivity”.

As to “QVQLVESGGGLVQAGGSLRLSCAASGSTFVYYTMGWYRQAPGKERELVAAINNGGSTYYADSVKGRFTISRDNAKNTVYLQMNSLKPEDTAFYYCARFTSRVSKYYWGQGSQVTVSS”, the “polyreactivity (PSR sort gate)” value is “low polyreactivity”.

Turning to “QVQLVESGGGLVQAGGSLRLSCAASGSTFVYYVMGWYRQAPGKERELVAAISWSDDSTYYADSVKGRFTISRDNAKNTVYLQMNSLKAEDTAVYYCAATGYPFYTSGDIEYYYWGQGTQVTVSS”, the “polyreactivity (PSR sort gate)” value is given as “low polyreactivity”.

Turning to “QVQLVESGGGLVQAGGSLRLSCAASGSTFWAYAMGWYRQAPGKERELVATITWSVGGTYYADSVKGRFTISRDNAKNTVYLQMNSLKPEDTAVYYCATDAYVKGVYEISEDRVDYWGQGTQVTVSS”, the “polyreactivity (PSR sort gate)” value is recorded as “low polyreactivity”.

As to “QVQLVESGGGLVQAGGSLRLSCAASGSTFWEYAMGWYRQAPGKERELVAAITWSTGSTYYADSVKGRFTISRDNAKNTVYLQMNSLKPEDTAVYYCNVDWGYFYTTQGFDYWGQGTQVTVSS”, the “polyreactivity (PSR sort gate)” value is “high polyreactivity”.

Take “QVQLVESGGGLVQAGGSLRLSCAASGSTFWFYAMGWYRQAPGKERELVAVISNSGSTYYADSVKGRFTISRDNAKNTVYLQMNSLKPEDTAVYYCNKDGGGDSYWYDYWGQATQVTVSS”: the “polyreactivity (PSR sort gate)” value is reported as “low polyreactivity”.

In the case of “QVQLVESGGGLVQAGGSLRLSCAASGSTFWGNAMGWYRQAPGKERELVATITDGGSTNYADSVKGRFTISRDNAKNTVYLQMNSLKPEDTAVYYCNAEEHYNTYVLHFRPYYVRHDYWGQGTQVTVSS”, the “polyreactivity (PSR sort gate)” value is recorded as “low polyreactivity”.

On to “QVQLVESGGGLVQAGGSLRLSCAASGSTFWGYTMGWYRPAPGKERELVAAITGSGGSTNYADSVKGRFTISRDNAKNTVNLQMNSLKPEDTAVYYCAADVFTARRRYDYWGQGTQVTVSS”, for which the “polyreactivity (PSR sort gate)” value is listed as “low polyreactivity”.

Consider “QVQLVESGGGLVQAGGSLRLSCAASGSTFWIYTMGWYRQAPGKERELVAAITWSGGRTYYADSVKGRFTISRDNAKNTVYLQMNSLKPEDTAVYYCNADVYSYRPSTIQRYVLFDYWGQGTQVTVSS”, for which the “polyreactivity (PSR sort gate)” value is “low polyreactivity”.

As for “QVQLVESGGGLVQAGGSLRLSCAASGSTFWKYAMGWYRQAPGKERELVASIRSGGSTYYADSVKGRFTISRDNAKNTVYLQMNSLKPEDTAVYYCAAKSISVGGGVYGYRYYYWGQGTQVTVSS”, the “polyreactivity (PSR sort gate)” value is recorded as “high polyreactivity”.

“QVQLVESGGGLVQAGGSLRLSCAASGSTFWKYIMGWYRQAPGKERELVAAITTRGGSTYADSVKGRFTISRDNAKNTVYLQMNSLKPEDTAVYYWAATKFWYYGYDYWGQGTQVTVSS”: the “polyreactivity (PSR sort gate)” value is on record as “low polyreactivity”.

As to “QVQLVESGGGLVQAGGSLRLSCAASGSTFWPYAMGWSRQAPGKERELVARINSGGNTNYADSVKGRFTISRDNAKNTVYLQMNSLKPEDTAVYYCAVRSLYEPRVYYRWVVVDGNYLGQGTQVTVSS”, the “polyreactivity (PSR sort gate)” value is on record as “low polyreactivity”.

For the sequence “QVQLVESGGGLVQAGGSLRLSCAASGSTFWPYAMGWYRQAPGKERELVAAINYSSGSTYYADSVKGRFTISRDNAKNTVYLQMNSLKPEDNAVYYCAKGWYAGYPYDYWGQGTQVTVSS”, the “polyreactivity (PSR sort gate)” value is recorded as “low polyreactivity”.

For “QVQLVESGGGLVQAGGSLRLSCAASGSTFWPYAMGWYRQAPGKERELVAAITSSGGSTYYADSVKGRFTISRDNAKNTVYLQRNSLKPEDTAVYYCAADWSNLGAYDYWGQGTQVTVSS”, the “polyreactivity (PSR sort gate)” value is listed as “low polyreactivity”.

Regarding “QVQLVESGGGLVQAGGSLRLSCAASGSTFWSNTMGWYRQAPGKERELVASITTSGGRTYYADSVKGRFTISRDNAKNTVYLQMNSLKPEDTAVYYCAAGGRVRRRYGYWGQGTQVTVSS”, the “polyreactivity (PSR sort gate)” value is “high polyreactivity”.

As for “QVQLVESGGGLVQAGGSLRLSCAASGSTFWSYAMGWSRQAPGKERELVAAITDSGGSTYYADSVKGRFTISRDNAKNTVYLQLNSLKPEDTAVYYCAVDSRYTAPLRPLGPFDYWGQGTQVTVSS”, the “polyreactivity (PSR sort gate)” value was “low polyreactivity”.

Turning to “QVQLVESGGGLVQAGGSLRLSCAASGSTFWSYAMGWYRQATGKERELVAAITSGGRTYYADSVKGRFTISRDNAKNTVYLQMNCLKAEDTAVYYCAAEGSVGLYGMIMHYWGQGTQVTVSS”, the “polyreactivity (PSR sort gate)” value is reported as “high polyreactivity”.

Regarding “QVQLVESGGGLVQAGGSLRLSCAASGSTFWTNAMAWYRQSPGKERELVATITYSTGTYADSVKGRFTISRDNAKNTVYLQMNSLKPEDTAVYYCAAEVVAQMNYWGQGTQVTVSS”, the “polyreactivity (PSR sort gate)” value is “low polyreactivity”.

Consider “QVQLVESGGGLVQAGGSLRLSCAASGSTFWTNAMGWYRQAPGKERELVAVISRGGSTNYADSVKGRFTISRDNAKNTVYLQMNSLKPEDTAVYYCAAASYLYGRYYYWGQGTQVTVSS”, for which the “polyreactivity (PSR sort gate)” value is given as “high polyreactivity”.

As to “QVQLVESGGGLVQAGGSLRLSCAASGSTFWVNVMGWYRQAPGKERELVATITSGGRTNYADSVKGRFTISRDNAKNTVYLQMNSLKPADTAVYDCAADLKRGDLMDYWGQGTQVTVSS”, the “polyreactivity (PSR sort gate)” value was “low polyreactivity”.

“QVQLVESGGGLVQAGGSLRLSCAASGSTFWVYAMGWYRQAPGKERELVATISRGGSTNYADSVKGRFTISRDNAKNTVYLQMNSLKPEDTAVYYCAAPRFYGYGYEYWGQGTQVTVSS”: the “polyreactivity (PSR sort gate)” value was “low polyreactivity”.

With “QVQLVESGGGLVQAGGSLRLSCAASGSTFWVYTMGWYRQAPGKERELVAAISYGGGRTYYADSVKGRFTISRDNEKNTVYLQMNSLKPEDTAVYYCNKDYWRDVAQDVLDGYEYWGQGTQVTVSS”, the “polyreactivity (PSR sort gate)” value is given as “low polyreactivity”.

Regarding “QVQLVESGGGLVQAGGSLRLSCAASGSTFWVYTMGWYRQAPGKERELVAAITLNGGSTYYADSVKGRFTISRDNAKNTVYLQMNSLKPEDTAVYYCAAYVFPFDKSYHYVGYDYWGQGTQVTVSS”, the “polyreactivity (PSR sort gate)” value is recorded as “low polyreactivity”.

As for “QVQLVESGGGLVQAGGSLRLSCAASGSTFWWYAMGWYRQAPGKDRELVAASSYSGSSTYYADSVKGRFTISRDNAKNTVYLQMNSLKPEDTAVYYCAADIQYYYNYYPGDYWGQGTQVTVSS”, the “polyreactivity (PSR sort gate)” value is reported as “low polyreactivity”.

For the sequence “QVQLVESGGGLVQAGGSLRLSCAASGSTFWWYAMGWYRQAPGKEREFVAAINWRGSSTYYADSVKGRFTISRDNAKNTVYLQMNSLKPEDTSVYYCNAVLRYGYAGMDYWGQGTQVTVSS”, the “polyreactivity (PSR sort gate)” value is given as “high polyreactivity”.

With “QVQLVESGGGLVQAGGSLRLSCAASGSTFWYNAMGWYRQAPGKEREFVASISFRSGRTYYADSVKGRFTISRDNAKNTVYLQMNSLKPEDTAVYYCAADYYQYKYDYWGQGTQVTVSS”, the “polyreactivity (PSR sort gate)” value is “high polyreactivity”.

Take “QVQLVESGGGLVQAGGSLRLSCAASGSTFWYNAMGWYRQAPGKERELVASITLSGARTYYADSVKGRFTISRDNAKNTVYLQMNSLKPEDTAVYYCAKRTGRVKYYYWGQGTQVTVSS”: the “polyreactivity (PSR sort gate)” value is “high polyreactivity”.

For the sequence “QVQLVESGGGLVQAGGSLRLSCAASGSTFWYNAMGWYRQAPGTERELVATITNSGGSTYYADSVKGRFTISRDNAKNTVYLQMNSLKPEDTAVYYCATDVYSGALLKYDYWGQGTQVTVSS”, the “polyreactivity (PSR sort gate)” value is given as “low polyreactivity”.

In the case of “QVQLVESGGGLVQAGGSLRLSCAASGSTFWYYAMAWYRHAPGKEREMVAAINSDDSTNYADSVKGRFTISRDNAKNTDYLQMNSLKPEDTAVYDCHRGFVYSTTGLWRYYDFDYWGQGTQVTLSS”, the “polyreactivity (PSR sort gate)” value was “low polyreactivity”.

As to “QVQLVESGGGLVQAGGSLRLSCAASGSTFWYYAMGWYRQAPGKEREFVAAITTSAGRTYYADSVKGRFTISRDNAKNSVYLQMNSLKPEDTAVYYCAAEPRQYWEYNYWGQGTQVTVSS”, the “polyreactivity (PSR sort gate)” value is “high polyreactivity”.

The record behind these values is the nanobody polyreactivity screen of Harvey et al. (2022).
